Values of other authors, collected in patent US7208138B2, “Contrast enhancement agent for magnetic resonance imaging” (Duke University, priority 2001, dated 2007).

Experiments:
fXIIIa = biological target: T1, fXIIIa (Homo sapiens, UniProt P00488)
T1 sequence (P00488 39-732 limits assumed): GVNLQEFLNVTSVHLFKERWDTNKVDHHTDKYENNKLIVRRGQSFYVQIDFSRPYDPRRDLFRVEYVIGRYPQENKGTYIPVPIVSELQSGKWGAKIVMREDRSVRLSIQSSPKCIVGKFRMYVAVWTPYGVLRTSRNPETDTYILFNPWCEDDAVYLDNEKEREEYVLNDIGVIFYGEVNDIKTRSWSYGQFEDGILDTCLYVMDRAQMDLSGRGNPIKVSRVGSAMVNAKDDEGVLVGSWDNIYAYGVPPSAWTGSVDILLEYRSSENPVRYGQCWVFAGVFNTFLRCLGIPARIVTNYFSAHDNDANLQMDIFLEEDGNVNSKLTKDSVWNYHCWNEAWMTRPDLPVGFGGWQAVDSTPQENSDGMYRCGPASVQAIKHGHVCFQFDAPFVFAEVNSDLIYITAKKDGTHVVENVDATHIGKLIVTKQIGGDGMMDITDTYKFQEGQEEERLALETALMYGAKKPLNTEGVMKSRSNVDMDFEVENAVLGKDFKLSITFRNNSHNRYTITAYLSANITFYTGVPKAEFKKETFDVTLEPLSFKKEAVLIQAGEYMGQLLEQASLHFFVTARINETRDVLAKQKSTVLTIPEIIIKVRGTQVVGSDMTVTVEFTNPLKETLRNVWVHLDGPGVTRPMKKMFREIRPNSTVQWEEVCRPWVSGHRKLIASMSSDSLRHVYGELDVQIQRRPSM

TG = biological target: T2, TG (Homo sapiens, UniProt P21980)
T2 sequence (P21980 1-687): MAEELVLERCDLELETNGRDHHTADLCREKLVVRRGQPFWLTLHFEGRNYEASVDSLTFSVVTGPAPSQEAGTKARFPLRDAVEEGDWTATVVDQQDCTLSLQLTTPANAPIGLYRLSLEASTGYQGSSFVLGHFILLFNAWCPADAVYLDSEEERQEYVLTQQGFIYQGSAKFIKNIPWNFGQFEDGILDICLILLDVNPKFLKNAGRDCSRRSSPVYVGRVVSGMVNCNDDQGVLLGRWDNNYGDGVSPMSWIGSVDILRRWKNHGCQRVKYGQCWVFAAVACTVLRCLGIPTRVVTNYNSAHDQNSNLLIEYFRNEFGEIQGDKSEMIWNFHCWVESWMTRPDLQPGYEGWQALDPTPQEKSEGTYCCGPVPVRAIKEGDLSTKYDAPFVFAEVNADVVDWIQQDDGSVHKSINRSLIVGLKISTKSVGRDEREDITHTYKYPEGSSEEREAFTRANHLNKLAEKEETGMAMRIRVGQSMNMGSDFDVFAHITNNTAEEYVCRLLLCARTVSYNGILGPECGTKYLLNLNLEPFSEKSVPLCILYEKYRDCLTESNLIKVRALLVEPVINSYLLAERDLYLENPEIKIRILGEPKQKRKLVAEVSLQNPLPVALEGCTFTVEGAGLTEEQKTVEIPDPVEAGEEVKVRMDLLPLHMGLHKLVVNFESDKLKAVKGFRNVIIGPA

[1] = time to clearance of one half from the bloodstream
[2] = fraction of the relaxivity of free gadolinium ion

Compound | fXIIIa crosslinking / recognition (fXIIIa) | TG crosslinking / recognition (TG) | cleared from the bloodstream (½) [1] [min] | relaxivity of the complex relative to free gadolinium ion [2]
SEQ ID NO: 3: peptide NGEQVSP, glycine at position 2; control peptide in crosslinking assays (listed as Homo sapiens) | inert | inert |  | 
O=C([O-])CN(CCN(CC(=O)[O-])CC(=O)[O-])CCN(CC(=O)[O-])CC(=O)[O-].[Gd+3] [Gd-DTPA] |  |  | 20 | about one-half
SEQ ID NO: 2: peptide of amino acid sequence NQEQVSP, the TG and fXIIIa crosslinking motif (listed as Homo sapiens) | recognized | recognized |  | 
